# Tested on: PspGI restriction endonuclease (recombinant, pPspGIR70) (Pyrococcus species G-I-H)
# Test: cleavage_in_vitro
# Settings: approximate titer of crude extract on T7 DNA; NEBuffer III, 65 C 1 h
substance,measurement,value
T7 DNA,activity (units/g cells),20000

# — patent publication US5849558
